In US20100330094A1 (NOVIMMUNE S A, published 2010):
Changes are numbered by the printed parent chain.

T1: recombinant human IP-10 (hIP-10) (human, UniProt P02778 22-98)
T1 sequence (looked up): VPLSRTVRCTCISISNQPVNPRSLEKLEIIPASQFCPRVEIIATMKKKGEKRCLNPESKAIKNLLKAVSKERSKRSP

B1: CC21R3P1_F1, scFv format (scFv)
chain: QVQLVESGGGVVQPGRSHTLSCAASGFAFKNSGIHWVRQAPGKGLEWVAVISYDGSNKFYADSVKGRFTISRDNSQNTVYLQMTDLRPDDTAVYYCARDGSESEYLDYWGKGTLVTVSSNFMLTQPHSVSESPGKTVTISCTGSGGSIDRNYVQWYQQRPGSAPITVIYEDNQRPSGVPDRFSGSIDSSSNSASLTISGLRTDDEADYYCQSYDSINLWVFGGGTKVTVL
B2: CF1N1R3P4_C7, scFv format (scFv)
chain: QVQLVESGGGVVQPGRSLRLSCAASGFTFSNSGIHWVRQAPGKGLEWVAVISYDGSNKFYADSVKGRFTISRDNSKNTLYLQMNSLRAEDTAVYYCAKLRDNAEYTDYWGQGTLVTVSSNFMLTQPHSVSESPGKTVTISCTGSGGSIDRNYVQWYQQRPGSSPTTVIYEDNQRPSGVPDRFSGSIDSSSNSASLTISGLKTEDEADYYCQSYDPLPVWVFGGGTKLTVL
B3: CF1H1R3P3_G11, scFv format (scFv)
chain: B2 chain with A103G, T106L
B4: CB21R3P3_E5, scFv format (scFv)
chain: QVQLVESGGGVVQPGRSLRLSCAASGFTFSSYGMHWVRQAPGKGLEWVAVISYDGSIKYYADSVKGRFTISRDNSKNTLYLQMNSLRAEDAAVYYCARAPDGHQLDYWGRGTLVTVSSNFMLTQPHSVSESPGKTVTISCTGSSGSIASNYVQWYQQRPGSAPTTVIYEDDQRPSDVPDRFSGSIDSSSNSASLTISGLRTEDEADYYCQSYVSSKWVFGGGTKLTVL
B5: CC21R3P1_B9, scFv format (scFv)
chain: EVQLVQSGGGVVQPGRSLRLSCAASGFTFSSYGMHWVRQAPGKGLEWVAVISYDGSNKYYADSVKGRFTISRDNSKNTLYLQMNSLRAEDTAVYYCAKDGGWYDWYFDLWGRGTLVTVSSSSELTQDPDVSVALGQTVRITCQGDSLTSYYASWYQQKPGQAPVLVISGNDNRPSGIPDRFSGSNSGNTASLTITGAQAEDAADYYCGSRDSSGYQVVFGAGTKLTVL
B6: CC21R3P1_H6, scFv format (scFv)
chain: QVQLVESGGGVAQSGKSLRLSCAASGFTFSNYGMHWVRQAPGKGLEWLAVISYDGSNRYYADSVKGRFTISRDNSNNTLNLQMSSLRAEDTALYYCAKDAGGPLDYWGKGTLVTVSSQSVLTQLTQPPSVSLAPGQTATITCGGDNIGRKSVHWYQQKPGQAPVLVVYDDTDRPSGIPERFSGSNSGNTATLTISRVEAGDEADYYCQVWDSSIDHSWVFGGGTKLTVL
B7: CB1R3P4_D3, scFv format (scFv)
chain: QVQLVQFGGGVVQPGRSLRLSCAASGFTFSSYGMHWVRQAPGKGLEWVAVISYDGSIKYYADSVKGRFTISRENAKNSVYLQMDSLRVGDTAVYYCTRAGYSTDWHPDYWGQGTMVTVSSSSELTQDPAVSVALGQTVRITCQGDSLRSYYASWYQQKPGQAPVLAIYGKNNRPSGIPDRFSGSSSGNTASLTITGAQAEDEADYYCNSRDSSGNHVVFGGGTKLTVL

Target: T1, recombinant human IP-10 (hIP-10)
Test: cell-based or functional assay

Row | Binder | Calcium flux IC50 (nM); 10 nM hIP-10; hCXCR3 L1.2 cells [nM] | Chemotaxis IC50 (nM); 2 nM hIP-10; hCXCR3 L1.2 cells [nM] | Chemotaxis IC50 (nM); 0.2 nM hIP-10; hCXCR3 L1.2 cells [nM] | Chemotaxis IC50 (nM); 1 nM hIP-10; hCXCR3 L1.2 cells [nM]
1 | B1 | 36 | 18 |  | 
2 | B2 |  |  | 0.12 | 
3 | B3 | 7.8 |  | 0.39 | 
4 | B4 | 39 | 36 |  | 
5 | B5 | 107 |  |  | 107
6 | B6 | 71 |  |  | 36
7 | B7 | 179 |  |  | 72
